Experimental data: patent publication US8106168B2, “Metalloproteinase binding proteins” (Dyax Corp., priority 2005, dated 2012)

Experiments:
MMP-16 [1] = target: T1, MMP-16 (Homo sapiens, UniProt P51512); experiment: Cross-reactivity of Fabs and IgGs with MMP-16 (Example 8); format: biochemical; set-up: key to MMP-16 (cross-reactivity, class symbol): X: Does not inhibit MMP-16 at [I] = 100 nM level; conditions: 5 nM MMP16, 30 minutes at 30° C., 10 μM substrate
Protocol: For the studies summarized in Tables 13 and 14, 100 nM anti-MMP-14 Fab/IgG were incubated with 5 nM MMP16 for 30 minutes at 30° C., 10 μM of substrate was added, and the MMP-16 activity was measured.

MMP-16 [2] = target: T1, MMP-16; experiment: Cross-reactivity of Fabs with MMP-16 (Example 9); format: biochemical; set-up: key: X: Do not inhibit MMP-16 or MMP-24 at [I] = 100 nM level; Y: partially inhibit at [I] = 100 nM level; conditions: Fab, 100 nM final inhibitor concentration, 5 nM MMP-16
Protocol: (§1) For the studies summarized in Table 15, 1 μM of anti-MMP-14 Fab/IgG (100 nM final inhibitor concentration) were incubated with 5 nM of MMP-16 or 5 nM of MMP-24 for 30 minutes at 30° C., 10 μM of substrate was added, and the MMP-16 activity was measured.

MMP-24 = MMP-24 (Homo sapiens, UniProt Q9Y5R2); experiment: Cross-reactivity of Fabs with MMP-24 (Example 9); format: biochemical; set-up: key to MMP-24 (cross-reactivity, class symbol): X: Do not inhibit MMP-16 or MMP-24 at [I] = 100 nM level; Y: partially inhibit at [I] = 100 nM level; conditions: Fab, 100 nM final inhibitor concentration; 5 nM MMP-24
MMP-24, sequence (Q9Y5R2 156-645): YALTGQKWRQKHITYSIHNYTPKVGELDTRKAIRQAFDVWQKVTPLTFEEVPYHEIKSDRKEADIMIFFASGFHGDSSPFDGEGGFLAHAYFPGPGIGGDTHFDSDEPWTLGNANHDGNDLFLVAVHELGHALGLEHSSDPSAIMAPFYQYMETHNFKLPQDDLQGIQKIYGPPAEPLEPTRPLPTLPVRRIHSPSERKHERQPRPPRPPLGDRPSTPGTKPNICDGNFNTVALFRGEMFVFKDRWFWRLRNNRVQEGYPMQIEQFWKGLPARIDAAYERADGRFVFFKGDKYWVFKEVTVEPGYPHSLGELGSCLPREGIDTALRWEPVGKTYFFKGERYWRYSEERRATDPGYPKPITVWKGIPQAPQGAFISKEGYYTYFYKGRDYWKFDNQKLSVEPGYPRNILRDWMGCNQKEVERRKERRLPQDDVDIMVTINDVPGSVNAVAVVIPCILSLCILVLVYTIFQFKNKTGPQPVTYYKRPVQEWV
Protocol: as §1

MMP-14 [3] = target: T2, MMP-14 (Homo sapiens, UniProt P50281); experiment: Selection and phage ELISA screening of anti-MMP-14 Fabs; format: binding; conditions: Fab from FAB310 phage display library
Method in brief: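 Phage ELISA screened 95 clones from each of rounds 2 and 3 against biotinylated MMP-14 (1 μg/ml) captured on streptavidin, in TRIS/CaCl2/NaCl pH 7.5. The clones came from Fab library selections on biotinylated MMP-14, either free or TIMP-2-complexed (500 nM round 1, 100 nM later rounds). Elution used 2.5 μM TIMP-2 followed by TEA.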

MMP-14 [4] = target: T2, MMP-14; experiment: IC50 for MMP-14 inhibition by Fabs and IgGs; format: biochemical; conditions: Fab
Protocol: MMP-14 binding proteins can be characterized in assays that measure their modulatory activity toward MMP-14 or fragments thereof in vitro or in vivo. For example, MMP-14 can be combined with a substrate such as Mca-Pro-Leu-Ala-Cys(Mob)-Trp-Ala-Arg-Dap(Dnp)-NH2 under assay conditions permitting cleavage by MMP-14. The assay is performed in the absence of the MMP-14 binding protein, and in the presence of increasing concentrations of the MMP-14 binding protein. The concentration of binding protein at which 50% of the MMP-14 activity (e.g., binding to the substrate) is inhibited is the IC50 value (Inhibitory Concentration 50%) or EC50 (Effective Concentration 50%) value for that binding protein.

T1 sequence (P51512 120-607): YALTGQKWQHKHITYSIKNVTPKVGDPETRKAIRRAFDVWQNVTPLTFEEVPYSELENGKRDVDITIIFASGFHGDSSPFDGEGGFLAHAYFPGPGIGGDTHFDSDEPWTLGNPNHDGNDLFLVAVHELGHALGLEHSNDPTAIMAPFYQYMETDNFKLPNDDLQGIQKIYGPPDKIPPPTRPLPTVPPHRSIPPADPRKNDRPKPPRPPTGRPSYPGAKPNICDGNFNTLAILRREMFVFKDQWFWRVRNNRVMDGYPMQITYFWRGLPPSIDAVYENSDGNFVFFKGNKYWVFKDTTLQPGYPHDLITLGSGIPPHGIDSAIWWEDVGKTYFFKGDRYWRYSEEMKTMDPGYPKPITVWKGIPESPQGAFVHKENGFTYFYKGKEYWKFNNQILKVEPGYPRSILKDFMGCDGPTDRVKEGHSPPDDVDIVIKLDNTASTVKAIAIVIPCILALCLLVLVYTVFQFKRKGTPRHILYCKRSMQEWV

B1: M0040-A11: human antibody (Fab, IgG) that binds and inhibits MMP-14; HC SEQ ID NO: 164, LC SEQ ID NO: 165 (antibody, V domains shown)
VH: EVQLLESGGGLVQPGGSLRLSCAASGFTFSHYVMFWVRQAPGKGLEWVSRIVPSGGATMYADSVKGRFTISRDNSKNTLYLQMNSLRAEDTAVYYCARDRPLYDSSGYVDYWGQGTLVTVSS
VL: QSALTQPPSASGSPGQSVTISCTGTSSDVGAYNYVSWYQQHPDKAPKLIIYNVNERPSGVPDRFSGSKSGNTASLTVSGLQAEDEADYYCTSYAGSNKIGVSGTGTKVTVL
modifications: Synthetically generated peptide
MMP-16 (cross-reactivity, class symbol) (MMP-16 [1]; Fab 100 nM): X
MMP-16 (cross-reactivity, class symbol) (MMP-16 [1]; IgG 100 nM): X
MMP-16 (cross-reactivity, class symbol) (MMP-16 [2]): X
MMP-24 inhibition (MMP-24): Y 58% inhibition
bind to human MMP-14 (MMP-14 [3]): bind to human MMP-14
bind to and inhibit human MMP-14 (MMP-14 [4]): bind to and inhibit human MMP-14

B2: M0043-A09: Fab that binds human MMP-14; DNA LV SEQ ID NO: 126, HV SEQ ID NO: 127 (antibody, V domains shown)
VL: QSVLTQPPSVSKDLRQTATLTCTGNSNNVGYQGAAWLQQHQGHPPKVLSYRNNNRPSGISERFSASRSGNTASLTITGLQPEDEADYYCSAWDSSLTAWVFGGGTKLTVL
VH: EVQLLESGGGLVQPGGSLRLSCAASGFTFSFYDMTWVRQAPGKGLEWVSSIWSSGGVTDYADSVKGRFTISRDNSKNTLYLQMNSLRAEDTAVYYCTRASSGYYDAFDIWGQGTMVTVSS
modifications: Synthetically generated oligonucleotide
bind to human MMP-14 (MMP-14 [3]): bind to human MMP-14

B3: M0044-D08: Fab that binds human MMP-14; DNA LV SEQ ID NO: 138, HV SEQ ID NO: 139 (antibody, V domains shown)
VL: QYELTQPLSVSVALGQTASISCWGHNIRIKNVHWYQQKPGQAPVVVMYIPERFSGSTSGNTATLTISGAQAGDEADYYCQVWDSSTVVFGGGTKLTVL
VH: EVQLLESGGGLVQPGGSLRLSCAASGFTFSKYPMSWVRQAPGKGLEWVSSIWPSGGHTFYADSVKGRFTISRDNSKNTLYLQMNSLRAEDTAVYYCAKNPGLRYAFDNWGRGTMVTVSS
modifications: Synthetically generated oligonucleotide
bind to human MMP-14 (MMP-14 [3]): bind to human MMP-14

B4: M0042-B07: Fab that binds human MMP-14; DNA LV SEQ ID NO: 122, HV SEQ ID NO: 123 (antibody, V domains shown)
VL: QDIQMTQSPLSLPVTPGEPASISCRSSQSLLHSNGYNYLDWYVQKPGQSPQLLIYLGSGRASGVPDRFSGSGSGTDFTLKINRVEAEDVGVYYCMQALQTPWTFGQGTKVEIK
VH: EVQLLESGGGLVQPGGSLRLSCAASGFTFSPYSMFWVRQAPGKGLEWVSVIYPSGGGTIYADSVKGRFTISRDNSKNTLYLQMNSLRAEDTAVYYCARSRESCDADTCYQYFQEWGQGTLVTVSS
modifications: Synthetically generated oligonucleotide
bind to human MMP-14 (MMP-14 [3]): bind to human MMP-14

B5: M0043-F01: Fab that binds human MMP-14; DNA LV SEQ ID NO: 130, HV SEQ ID NO: 131 (antibody, V domains shown)
VL: QSALTQPASVSGSPGQSITISCTGTSSDIGAYRYVSWYQQRPGKAPKLMIFDVTKRPSGVSNRFSGFKSGNTASLTISGLQAEDEADYYCSSFTSGSTFVFGTGTKVTVL
VH: EVQLLESGGGLVQPGGSLRLSCAASGFTFSKYSMYWVRQAPGKGLEWVSSISSSGGYTAYADSVKGRFTISRDNSKNTLYLQMNSLRAEDTAVYYCAIPWGSGSSWGQGTLVTVSS
modifications: Synthetically generated oligonucleotide
bind to human MMP-14 (MMP-14 [3]): bind to human MMP-14

B6: M0043-C03: Fab that binds human MMP-14; DNA LV SEQ ID NO: 128, HV SEQ ID NO: 129 (antibody, V domains shown)
VL: QDIQMTQSPASLYLSPGERATLSCRASQSVSSNLAWYQQKPGQAPRLLIYGASTRATGIPARFSGSGSGTEFTLTISSLQSADFAVYYCQQYDNWPPLTFGGGTKVEIK
VH: EVQLLESGGGLVQPGGSLRLSCAASGFTFSYYAMDWVRQAPGKGLEWVSSIGSSGGDTVYADSVKGRFTISRDNSKNTLYLQMNSLRAEDTATYYCARDPRQPGVFDYWGQGTLVTVSS
modifications: Synthetically generated oligonucleotide
bind to human MMP-14 (MMP-14 [3]): bind to human MMP-14

B7: M0032-B07: Fab that binds human MMP-14; DNA LV SEQ ID NO: 20, HV SEQ ID NO: 21 (antibody, V domains shown)
VH: EVQLLESGGGLVQPGGSLRLSCAASGFTFSPYLMHWVRQAPGKGLEWVSSIYPSGGITQYADSVKGRFTISRDNSKNTLYLQMNSLRAEDTAVYYCARFFPSHRDYTAFDTWGRGTLVTVSS
VL: QSVLTQEPSLTVSPGGTVTLTCASNTGAVTSGSYANWFQQKPGLTPRALIYSGTNKYSWTPARFSGSLFGGKAALTLSGVLPEDEAEYYCLVYYGGVWVFGGGTKLTVL
modifications: Synthetically generated oligonucleotide
bind to human MMP-14 (MMP-14 [3]): bind to human MMP-14

B8: M0043-G01: Fab that binds human MMP-14; DNA LV SEQ ID NO: 132, HV SEQ ID NO: 133 (antibody, V domains shown)
VL: QDIQMTQSPSAMSASVGDRVTITCRASQGISSWLAWYQQKPGKAPKLLIYAASSLQSGVPSRFSGSGSGTDFTLTISSLQPEDFATYYCQQANSFPLTFGGGTKVEIK
VH: EVQLLESGGGLVQPGGSLRLSCAASGFTFSFYSMHWVRQAPGKGLEWVSGISSSGGVTKYADSVKGRFTISRDNSKNTLYLQMNSLRAEDTAVYYCARARSTRGFDYWGQGTLVTVSS
modifications: Synthetically generated oligonucleotide
bind to human MMP-14 (MMP-14 [3]): bind to human MMP-14

B9: M0044-B03: Fab that binds human MMP-14; DNA LV SEQ ID NO: 136, HV SEQ ID NO: 137 (antibody, V domains shown)
VL: QDIQMTQSPSSVSASVGDRVTITCRASQNIYSWLAWYQQRPGKAPKLLIYAASSLHSGVPSRFSGSGSGTDFTLTISSLQPEDFATYYCQQAKSFPVTFGGGTKVEIK
VH: EVQLLESGGGLVQPGGSLRLSCAASGFTFSQYHMMWVRQAPGKGLEWVSSIGSSGYTKYADSVKGRFTISRDNSKNTLYLQMNSLRAEDTAVYYCAGAVAGTGAFDYWGQGTLVTVSS
modifications: Synthetically generated oligonucleotide
bind to human MMP-14 (MMP-14 [3]): bind to human MMP-14

B10: M0038-E06: human antibody (Fab, IgG) that binds and inhibits MMP-14; HC SEQ ID NO: 154, LC SEQ ID NO: 155 (antibody, V domains shown)
VH: EVQLLESGGGLVQPGGSLRLSCAASGFTFSPYVMHWVRQAPGKGLEWVSSISPSGGWTYYADSVKGRFTISRDNSKNTLYLQMNSLRAEDMAVYYCARGTGAYGMDVWGQGTTVTVSS
VL: QDIQMTQSPGTLSLSPGDRATLSCGASQLVVSNYIAWYQQKPGQAPRLLMYAGSIRATGIPDRFSGSGSGTDFTLTISRLEPEDFAIYYCQQRSNWPWTFGQGTKVEIK
modifications: Synthetically generated peptide
MMP-16 (cross-reactivity, class symbol) (MMP-16 [1]; Fab 100 nM): X
MMP-16 (cross-reactivity, class symbol) (MMP-16 [1]; IgG 100 nM): X
MMP-16 (cross-reactivity, class symbol) (MMP-16 [2]): X
MMP-24 (cross-reactivity, class symbol) (MMP-24): X
bind to human MMP-14 (MMP-14 [3]): bind to human MMP-14
bind to and inhibit human MMP-14 (MMP-14 [4]): bind to and inhibit human MMP-14

B11: M0032-B09: Fab that binds human MMP-14; DNA LV SEQ ID NO: 22, HV SEQ ID NO: 23 (antibody, V domains shown)
VH: EVQLLESGGGLVQPGGSLRLSCAASGFTFSIYKMVWVRQAPGKGLEWVSSIGSSGGHTRYADSVKGRFTISRDNSKNTLYLQMNSLRAEDTAVYYCARAPYYYYMDVWGKGTTVTVSS
VL: QDIQMTQSPSSVSASVGDTVTITCRASQGISTWLAWYQHKPGKAPKLLIYAGPSLQSGVPSRFSGSGSGTEFTLTISSLHPEDFATYYCQQLNHYPMTFGQGTRLEIK
modifications: Synthetically generated oligonucleotide
bind to human MMP-14 (MMP-14 [3]): bind to human MMP-14
